From US20110166062A1 (INDIANA UNIVERSITY RESEARCH AND TECHNOLOGY, published 2011)
Read-outs that look alike come from different tables or passages of the source. *1 amine or outer side, *2 acyl side, *3 side chain or, on linkers, in order; H or OH if unused. Where no end group is shown, it is not given here. Side-chain parts run from the residue outwards. [ ]: non-standard residue; d: D form. The star is where a group is joined. PEG 40 kDa = PEG (40 kDa) covalently attached to Cys; γGlu = O=C(O)[C@H](CCC(=O)[*:2])N[*:1]; Palmitoyl = CCCCCCCCCCCCCCCC(=O)*; Myristoyl = CCCCCCCCCCCCCC(=O)*; Dab = NCC[C@H](N)C(=O)O; Aib = CC(C)(N)C(=O)O

T1: GIP receptor (UniProt P48546 22-466)
T1 sequence (looked up): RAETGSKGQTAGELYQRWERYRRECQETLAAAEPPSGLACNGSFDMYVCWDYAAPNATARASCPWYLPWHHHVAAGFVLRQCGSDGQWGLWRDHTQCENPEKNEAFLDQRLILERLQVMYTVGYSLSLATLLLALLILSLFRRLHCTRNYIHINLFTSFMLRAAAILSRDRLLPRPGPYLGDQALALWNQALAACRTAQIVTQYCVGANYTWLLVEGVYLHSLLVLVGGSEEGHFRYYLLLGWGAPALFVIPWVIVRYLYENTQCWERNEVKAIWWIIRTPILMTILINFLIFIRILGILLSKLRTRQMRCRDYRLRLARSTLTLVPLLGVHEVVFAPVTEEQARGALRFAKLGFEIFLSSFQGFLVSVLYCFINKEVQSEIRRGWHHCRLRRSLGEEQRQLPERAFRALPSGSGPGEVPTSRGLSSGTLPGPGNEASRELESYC


What was measured:
Experiment in all cases: cell-based or functional assay
glucagon receptor [1] = biological target: T2, glucagon receptor (UniProt P47871 26-477, limits assumed)
T2 sequence (P47871 26-477 limits assumed): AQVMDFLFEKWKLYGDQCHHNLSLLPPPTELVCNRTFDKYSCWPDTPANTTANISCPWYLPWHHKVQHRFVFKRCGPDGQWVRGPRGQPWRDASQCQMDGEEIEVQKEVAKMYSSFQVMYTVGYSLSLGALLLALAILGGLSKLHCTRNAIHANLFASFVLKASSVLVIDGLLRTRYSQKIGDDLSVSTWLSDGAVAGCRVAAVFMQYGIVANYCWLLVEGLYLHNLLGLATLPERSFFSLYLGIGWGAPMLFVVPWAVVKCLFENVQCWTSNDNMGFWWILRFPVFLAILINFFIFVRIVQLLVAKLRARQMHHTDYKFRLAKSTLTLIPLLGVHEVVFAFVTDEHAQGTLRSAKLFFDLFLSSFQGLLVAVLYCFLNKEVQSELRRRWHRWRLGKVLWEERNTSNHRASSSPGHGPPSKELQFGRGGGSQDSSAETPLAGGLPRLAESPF

GIP receptor [2] = biological target: T1, GIP receptor
GLP-1 receptor [3] = biological target: T3, GLP-1 receptor (UniProt P43220 24-463, limits assumed)
glucagon receptor [4] = biological target: T2, glucagon receptor; remark: listed apart in the source
GIP receptor [5] = biological target: T1, GIP receptor; remark: listed apart in the source
GLP-1 receptor [6] = biological target: T3, GLP-1 receptor; remark: listed apart in the source
glucagon receptor [7] = biological target: T2, glucagon receptor; remark: listed apart in the source
GIP receptor [8] = biological target: T1, GIP receptor; remark: listed apart in the source
GLP-1 receptor [9] = biological target: T3, GLP-1 receptor; remark: listed apart in the source
glucagon receptor [10] = biological target: T2, glucagon receptor; remark: listed apart in the source

Row | Binder | % activity* (glucagon receptor [1]) [%] | EC50 (nM) at Glucagon Receptor (glucagon receptor [1]) [nM] | % Relative activity at the Receptor for GIP (GIP receptor [2]) [%] | % Relative activity at the Receptor for GLP-1 (GLP-1 receptor [3]) [%] | % Relative activity at the Receptor for Glucagon (glucagon receptor [4]) [%] | EC50, nM; GIP Receptor (GIP receptor [8]) [nM] | relative activity; GIP Receptor (GIP receptor [8]) [%] | EC50, nM; GLP-1 Receptor (GLP-1 receptor [9]) [nM] | relative activity; GLP-1 Receptor (GLP-1 receptor [9]) [%] | EC50, nM; Glucagon Receptor (glucagon receptor [10]) [nM] | relative activity; Glucagon Receptor (glucagon receptor [10]) [%] | other results
1 | HS[Dab](Ac)GTFTSDYSKYLD[Aib]RRAADFVAWLLDTGPSSGAPPPS-NH2 (N-terminus assumed; SMILES CC(=O)NCC[C@H](NC(=O)[C@H](CO)NC(=O)[C@@H](N)Cc1c[nH]cn1)C(=O)NCC(=O)N[C@H](C(=O)N[C@@H](Cc1ccccc1)C(=O)N[C@H](C(=O)N[C@@H](CO)C(=O)N[C@@H](CC(=O)O)C(=O)N[C@@H](Cc1ccc(O)cc1)C(=O)N[C@@H](CO)C(=O)N[C@@H](CCCCN)C(=O)N[C@@H](Cc1ccc(O)cc1)C(=O)N[C@@H](CC(C)C)C(=O)N[C@@H](CC(=O)O)C(=O)NC(C)(C)C(=O)N[C@@H](CCCNC(=N)N)C(=O)N[C@@H](CCCNC(=N)N)C(=O)N[C@@H](C)C(=O)N[C@@H](C)C(=O)N[C@@H](CC(=O)O)C(=O)N[C@@H](Cc1ccccc1)C(=O)N[C@H](C(=O)N[C@@H](C)C(=O)N[C@@H](Cc1c[nH]c2ccccc12)C(=O)N[C@@H](CC(C)C)C(=O)N[C@@H](CC(C)C)C(=O)N[C@@H](CC(=O)O)C(=O)N[C@H](C(=O)NCC(=O)N1CCC[C@H]1C(=O)N[C@@H](CO)C(=O)N[C@@H](CO)C(=O)NCC(=O)N[C@@H](C)C(=O)N1CCC[C@H]1C(=O)N1CCC[C@H]1C(=O)N1CCC[C@H]1C(=O)N[C@@H](CO)C(N)=O)[C@@H](C)O)C(C)C)[C@@H](C)O)[C@@H](C)O) [HSDab(Ac)…ibRRAADFVAWLLDTGPSSGAPPPS amide] | 113 | 0.023 | – | – | – | – | – | – | – | – | – | –
2 | Y[Aib]QGTFTSDYSIYLDKQAA[Aib]EFVNWLLAGGPSSGAPPPSK([γGlu-γGlu-Palmitoyl])-NH2 (N-terminus assumed; SMILES CCCCCCCCCCCCCCCC(=O)N[C@@H](CCC(=O)N[C@@H](CCC(=O)NCCCC[C@H](NC(=O)[C@H](CO)NC(=O)[C@@H]1CCCN1C(=O)[C@@H]1CCCN1C(=O)[C@@H]1CCCN1C(=O)[C@H](C)NC(=O)CNC(=O)[C@H](CO)NC(=O)[C@H](CO)NC(=O)[C@@H]1CCCN1C(=O)CNC(=O)CNC(=O)[C@H](C)NC(=O)[C@H](CC(C)C)NC(=O)[C@H](CC(C)C)NC(=O)[C@H](Cc1c[nH]c2ccccc12)NC(=O)[C@H](CC(N)=O)NC(=O)[C@@H](NC(=O)[C@H](Cc1ccccc1)NC(=O)[C@H](CCC(=O)O)NC(=O)C(C)(C)NC(=O)[C@H](C)NC(=O)[C@H](C)NC(=O)[C@H](CCC(N)=O)NC(=O)[C@H](CCCCN)NC(=O)[C@H](CC(=O)O)NC(=O)[C@H](CC(C)C)NC(=O)[C@H](Cc1ccc(O)cc1)NC(=O)[C@@H](NC(=O)[C@H](CO)NC(=O)[C@H](Cc1ccc(O)cc1)NC(=O)[C@H](CC(=O)O)NC(=O)[C@H](CO)NC(=O)[C@@H](NC(=O)[C@H](Cc1ccccc1)NC(=O)[C@@H](NC(=O)CNC(=O)[C@H](CCC(N)=O)NC(=O)C(C)(C)NC(=O)[C@@H](N)Cc1ccc(O)cc1)[C@@H](C)O)[C@@H](C)O)[C@@H](C)CC)C(C)C)C(N)=O)C(=O)O)C(=O)O) [mt-368] | – | – | 296 | 419 | 492 | – | – | – | – | – | – | EC50, nM; GIP Receptor (GIP receptor [5]): 0.00097 nM; relative activity; GIP Receptor (GIP receptor [5]): 296%; EC50, nM; GLP-1 Receptor (GLP-1 receptor [6]): 0.0038 nM; relative activity; GLP-1 Receptor (GLP-1 receptor [6]): 419%; EC50, nM; Glucagon Receptor (glucagon receptor [7]): 0.0069 nM; relative activity; Glucagon Receptor (glucagon receptor [7]): 492%
3 | Y[Aib]EGTFTSDYSIYLDKQAA[Aib]EFVC(PEG 40 kDa)WLLAGGPSSGAPPPSK(Myristoyl)-NH2 [mt-353] | – | – | – | – | – | 0.0035 | 103 | 0.0049 | 129 | 12.5 | 0.17 | –
4 | HXQGTFTSDYSKYLDEQAAKEFICWLMNGGPSSGAPPPSK (listed among the acylated glucagon peptides in paragraph 284; non-standard residues as in the sequence listing) [mt-345] | – | – | – | – | – | – | 4.99 | – | 153 | – | 193 | –
5 | YXEGTFTSDYSIYLDKQAAXEFVNWLLAGGPSSGAPPPSKC (AIB at position 20 (Example 25); listed among the acylated glucagon peptides in paragraph 284; other non-standard residues as in the sequence listing) [mt-343] | – | – | – | – | – | 0.0243 | 63.8 | 0.0224 | 41.5 | 41.1 | 0.07 | –
6 | YXEGTFTSDYSIYLDKQAAXEFVNWLLAGGPSSGAPPPSKC (AIB at position 20 (Example 25); other non-standard residues as in the sequence listing) [mt-344] | – | – | – | – | – | 0.0319 | 48.6 | 0.089 | 10.4 | 159 | 0.02 | –
7 | HS[Dab](Ac)GTFTSDYSKYLD[Aib]RRATDFVTWLLDE [HSDab(Ac)…ibRRATDFVTWLLDE] | 46 | 0.057 | – | – | – | – | – | – | – | – | – | –
8 | Y[Aib]QGTFISDK([γGlu-γGlu-Palmitoyl])SIYLDKQAA[Aib]EFVNWLLAGGPSSGAPPPS-NH2 (N-terminus assumed; SMILES CCCCCCCCCCCCCCCC(=O)N[C@@H](CCC(=O)N[C@@H](CCC(=O)NCCCC[C@H](NC(=O)[C@H](CC(=O)O)NC(=O)[C@H](CO)NC(=O)[C@@H](NC(=O)[C@H](Cc1ccccc1)NC(=O)[C@@H](NC(=O)CNC(=O)[C@H](CCC(N)=O)NC(=O)C(C)(C)NC(=O)[C@@H](N)Cc1ccc(O)cc1)[C@@H](C)O)[C@@H](C)CC)C(=O)N[C@@H](CO)C(=O)N[C@H](C(=O)N[C@@H](Cc1ccc(O)cc1)C(=O)N[C@@H](CC(C)C)C(=O)N[C@@H](CC(=O)O)C(=O)N[C@@H](CCCCN)C(=O)N[C@@H](CCC(N)=O)C(=O)N[C@@H](C)C(=O)N[C@@H](C)C(=O)NC(C)(C)C(=O)N[C@@H](CCC(=O)O)C(=O)N[C@@H](Cc1ccccc1)C(=O)N[C@H](C(=O)N[C@@H](CC(N)=O)C(=O)N[C@@H](Cc1c[nH]c2ccccc12)C(=O)N[C@@H](CC(C)C)C(=O)N[C@@H](CC(C)C)C(=O)N[C@@H](C)C(=O)NCC(=O)NCC(=O)N1CCC[C@H]1C(=O)N[C@@H](CO)C(=O)N[C@@H](CO)C(=O)NCC(=O)N[C@@H](C)C(=O)N1CCC[C@H]1C(=O)N1CCC[C@H]1C(=O)N1CCC[C@H]1C(=O)N[C@@H](CO)C(N)=O)C(C)C)[C@@H](C)CC)C(=O)O)C(=O)O) [mt-385] | – | – | 715 | 3.18 | 239 | – | – | – | – | – | – | –
9 | Y[Aib]QGTFTSDK([γGlu-γGlu-Palmitoyl])SIYLDKQAA[Aib]EFVNWLLAGGPSSGAPPPS-NH2 (N-terminus assumed; SMILES CCCCCCCCCCCCCCCC(=O)N[C@@H](CCC(=O)N[C@@H](CCC(=O)NCCCC[C@H](NC(=O)[C@H](CC(=O)O)NC(=O)[C@H](CO)NC(=O)[C@@H](NC(=O)[C@H](Cc1ccccc1)NC(=O)[C@@H](NC(=O)CNC(=O)[C@H](CCC(N)=O)NC(=O)C(C)(C)NC(=O)[C@@H](N)Cc1ccc(O)cc1)[C@@H](C)O)[C@@H](C)O)C(=O)N[C@@H](CO)C(=O)N[C@H](C(=O)N[C@@H](Cc1ccc(O)cc1)C(=O)N[C@@H](CC(C)C)C(=O)N[C@@H](CC(=O)O)C(=O)N[C@@H](CCCCN)C(=O)N[C@@H](CCC(N)=O)C(=O)N[C@@H](C)C(=O)N[C@@H](C)C(=O)NC(C)(C)C(=O)N[C@@H](CCC(=O)O)C(=O)N[C@@H](Cc1ccccc1)C(=O)N[C@H](C(=O)N[C@@H](CC(N)=O)C(=O)N[C@@H](Cc1c[nH]c2ccccc12)C(=O)N[C@@H](CC(C)C)C(=O)N[C@@H](CC(C)C)C(=O)N[C@@H](C)C(=O)NCC(=O)NCC(=O)N1CCC[C@H]1C(=O)N[C@@H](CO)C(=O)N[C@@H](CO)C(=O)NCC(=O)N[C@@H](C)C(=O)N1CCC[C@H]1C(=O)N1CCC[C@H]1C(=O)N1CCC[C@H]1C(=O)N[C@@H](CO)C(N)=O)C(C)C)[C@@H](C)CC)C(=O)O)C(=O)O) [mt-384] | – | – | 808 | 349 | 228 | – | – | – | – | – | – | –
10 | HS[Dab](Ac)GTFTSDYSKYLD[Aib]RRASDFVSWLLDE [HSDab(Ac)…ibRRASDFVSWLLDE] | 54 | 0.048 | – | – | – | – | – | – | – | – | – | –
